The target of data set [1] is nucleosome (of the N-parp/nucleosome complexes, data not shown). Briefly: SEC-MALS. In general terms: Size exclusion chromatography separates by hydrodynamic size, large species first.
Data set [2] has as its target N-parp (N-terminal half of PARP-1, amino acids 1-486) (human) (UniProt P09874). Briefly: FRET or BRET.
The target in data set [3] is full-length human PARP-1 [change] (human) (UniProt P09874). In words: FRET or BRET. A general note: In BRET a luciferase serves as donor, and the signal depends on an acceptor being close.
Chain of full-length human PARP-1 [change] (human) (P09874 whole entry V762A): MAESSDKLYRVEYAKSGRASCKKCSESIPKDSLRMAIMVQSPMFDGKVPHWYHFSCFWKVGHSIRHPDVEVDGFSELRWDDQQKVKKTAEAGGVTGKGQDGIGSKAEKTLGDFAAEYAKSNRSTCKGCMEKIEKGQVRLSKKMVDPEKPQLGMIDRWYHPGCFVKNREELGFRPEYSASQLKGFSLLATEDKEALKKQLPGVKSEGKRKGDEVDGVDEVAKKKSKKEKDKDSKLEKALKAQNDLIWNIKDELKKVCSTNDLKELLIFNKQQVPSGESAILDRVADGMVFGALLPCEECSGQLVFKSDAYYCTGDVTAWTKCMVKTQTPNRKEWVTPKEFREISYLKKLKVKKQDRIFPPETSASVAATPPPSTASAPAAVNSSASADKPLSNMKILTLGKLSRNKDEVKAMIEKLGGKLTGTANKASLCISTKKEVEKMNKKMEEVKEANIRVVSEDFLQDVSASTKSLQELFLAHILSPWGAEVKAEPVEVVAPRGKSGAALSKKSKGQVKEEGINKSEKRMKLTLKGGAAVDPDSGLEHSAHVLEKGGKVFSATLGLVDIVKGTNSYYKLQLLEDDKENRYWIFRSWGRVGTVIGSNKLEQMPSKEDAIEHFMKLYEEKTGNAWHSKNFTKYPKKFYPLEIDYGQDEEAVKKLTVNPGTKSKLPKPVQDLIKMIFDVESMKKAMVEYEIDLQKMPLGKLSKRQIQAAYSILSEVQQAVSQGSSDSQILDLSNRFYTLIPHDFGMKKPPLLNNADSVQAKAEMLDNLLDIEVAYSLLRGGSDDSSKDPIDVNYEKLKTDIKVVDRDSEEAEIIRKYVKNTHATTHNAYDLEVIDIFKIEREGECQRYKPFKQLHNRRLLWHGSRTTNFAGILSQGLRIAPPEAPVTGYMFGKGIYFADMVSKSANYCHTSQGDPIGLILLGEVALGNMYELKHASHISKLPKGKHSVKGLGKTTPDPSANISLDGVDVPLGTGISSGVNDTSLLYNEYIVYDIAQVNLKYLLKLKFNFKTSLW
Data set [4] has as its target N-parp (Zn1-Zn3 and BRCT) (UniProt P09874). Briefly: HI-FI FRET.
Data set [5] has as its target PARP-1 (full-length) V762A (human) (UniProt P09874). Briefly: HI-FI FRET.
For data set [6], the target named is Nuc165, unlabeled mononucleosome on 165-bp 601 DNA. In words: SEC-MALS.
Data set [7] deals with Nuc207, mononucleosome on 207-bp 601 DNA as used for SEC-MALS. Briefly: SEC-MALS.

pKd: −log10 of the molar value. A value given as a limit tells only on which side of the number the result lay.

Chain of PARP-1 (full-length) V762A (human) (P09874 whole entry V762A): as above
Chain of N-parp (Zn1-Zn3 and BRCT) (P09874 1-486): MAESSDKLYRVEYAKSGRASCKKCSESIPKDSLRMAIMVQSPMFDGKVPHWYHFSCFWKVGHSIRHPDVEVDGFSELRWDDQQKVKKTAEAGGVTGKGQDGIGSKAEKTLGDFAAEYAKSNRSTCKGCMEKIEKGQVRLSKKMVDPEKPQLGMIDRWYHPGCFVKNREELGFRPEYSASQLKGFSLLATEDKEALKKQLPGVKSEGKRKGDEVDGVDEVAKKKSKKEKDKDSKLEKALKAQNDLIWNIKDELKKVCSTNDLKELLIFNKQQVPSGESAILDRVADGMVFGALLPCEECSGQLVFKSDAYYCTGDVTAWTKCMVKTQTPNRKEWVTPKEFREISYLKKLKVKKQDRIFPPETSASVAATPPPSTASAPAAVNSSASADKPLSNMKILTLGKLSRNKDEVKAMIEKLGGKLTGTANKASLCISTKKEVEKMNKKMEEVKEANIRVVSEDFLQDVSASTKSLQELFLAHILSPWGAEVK
Chain of N-parp (N-terminal half of PARP-1, amino acids 1-486) (human) (P09874 1-486): as above
Chain of N-parp (N-terminal half of PARP-1, amino acids 1-486) (P09874 1-486): as above

A word on the stoichiometry N: it is the number of molecules, sites or subunits per partner or assembly. “N-parp (N-terminal half of PARP-1, amino acids 1-486) (from UniProt P09874 1-486) (domain or fragment)” showed a stoichiometry N in data set [1] of 1. Usually pKd stands for −log10 of the Kd, conventionally taken in molar units. As for “Nuc147, mononucleosome on 147-bp 601 DNA, labeled with ATTO 647N at histone H4 [change] (complex)”, the negative logarithm of the Kd (pKd) in data set [2] and in data set [3] was under 6.30 in each case. As to Nuc165, the pKd is 7.24 in data set [4] and 8.66 in data set [5]. Turning to “Nuc165, mononucleosome on 165-bp 601 DNA, labeled with ATTO 647N at histone H4 [change] (complex)”, the negative-log Kd (pKd) in data set [2] was 7.24; in data set [3], 8.66. Take Nuc178: the results for the pKd in data set [4] and in data set [5] were 6.62 and 7.07, respectively. For Nuc207 the same measures were 7.31 and 9.00. In turn, “Nuc207, mononucleosome on 207-bp 601 DNA, labeled with ATTO 647N at histone H4 [change] (complex)” had a negative logarithm of the Kd (pKd) in data set [2] of 7.31. With “full-length human PARP-1 [change] (from UniProt P09874) (enzyme)”, the stoichiometry N in data set [6] and in data set [7] was 1 in each case.

(Values after paper PMC3463355.)
